Source: US20190010203A1 (ADEPTHERA, published 2019)
Non-standard residues stand in square brackets, D forms with d. No end group written: not given here. *: point of attachment. Palmitoyl = CCCCCCCCCCCCCCCC(=O)*; AEEEA = NCCOCCOCCOCC(=O)O; AEEA = NCCOCCOCC(=O)O

B1: SEQ ID NO: 121 (peptide)
peptide: Palmitoyl-KVQKLAHQIYQFTDKDSAPVDPSSPHSY-NH2
B2: SEQ ID NO: 123 (peptide)
peptide: Palmitoyl-KVQKLAHQISAPVDPSSPHSY-NH2
B3: SEQ ID NO: 124 (peptide)
peptide: Palmitoyl-KVQKLAHQSAPVDPSSPHSY-NH2
B4: SEQ ID NO: 114 (peptide)
peptide: [AEEA]K(Palmitoyl)VQKLAHQIYSAPVDPSSPHSY-NH2
B5: SEQ ID NO: 122 (peptide)
peptide: Palmitoyl-KVQKLAHQIYSAPVDPSSPHSY-NH2
B6: SEQ ID NO: 116 (peptide)
peptide: Ac-TVQKLAHRLWQLMGPDKDNVAPRSKISPQGY-NH2
B7: SEQ ID NO: 115 (peptide)
peptide: Ac-VTHRLAGLLSRFTDKDKDNVAPRSKISPQGY-NH2
B8: SEQ ID NO: 119 (peptide)
peptide: Palmitoyl-KVQKLAHQIYQFTDKDVAPRSKISPQGY-NH2
B9: SEQ ID NO: 112 (peptide)
peptide: [AEEA]K(Palmitoyl)VQKLAHQIYQFTDKDSAPVDPSSPHSY-NH2
B10: SEQ ID NO: 78 (peptide)
peptide: [AEEEA]K(Palmitoyl)VQKLAHQIYQFTDKDKDNSAPVDPSSPHSY-NH2
modifications: N-terminus assumed
SMILES: CCCCCCCCCCCCCCCC(=O)NCCCC[C@H](NC(=O)COCCOCCOCCN)C(=O)N[C@H](C(=O)N[C@@H](CCC(N)=O)C(=O)N[C@@H](CCCCN)C(=O)N[C@@H](CC(C)C)C(=O)N[C@@H](C)C(=O)N[C@@H](Cc1c[nH]cn1)C(=O)N[C@@H](CCC(N)=O)C(=O)N[C@H](C(=O)N[C@@H](Cc1ccc(O)cc1)C(=O)N[C@@H](CCC(N)=O)C(=O)N[C@@H](Cc1ccccc1)C(=O)N[C@H](C(=O)N[C@@H](CC(=O)O)C(=O)N[C@@H](CCCCN)C(=O)N[C@@H](CC(=O)O)C(=O)N[C@@H](CCCCN)C(=O)N[C@@H](CC(=O)O)C(=O)N[C@@H](CC(N)=O)C(=O)N[C@@H](CO)C(=O)N[C@@H](C)C(=O)N1CCC[C@H]1C(=O)N[C@H](C(=O)N[C@@H](CC(=O)O)C(=O)N1CCC[C@H]1C(=O)N[C@@H](CO)C(=O)N[C@@H](CO)C(=O)N1CCC[C@H]1C(=O)N[C@@H](Cc1c[nH]cn1)C(=O)N[C@@H](CO)C(=O)N[C@@H](Cc1ccc(O)cc1)C(N)=O)C(C)C)[C@@H](C)O)[C@@H](C)CC)C(C)C
B11: SEQ ID NO: 120 (peptide)
peptide: Palmitoyl-KVQNLSHRLWQLMGPAGSAPVDPSSPHSY-NH2
B12: SEQ ID NO: 92 (peptide)
peptide: Palmitoyl-KGCRFGTCTVQKLAHQIYQFTDKDSAPVDPSSPHSY-NH2
modifications: ends and bridges not checked
B13: SEQ ID NO: 48 (peptide)
peptide: miniPEG-K(Palmitoyl)GCRFGTCTVQKLAHQIYQFTDKDSAPVDPSSPHSY-NH2
modifications: ends and bridges not checked
B14: SEQ ID NO: 103 (peptide)
peptide: Palmitoyl-KGCRFGTCTVQKLAHQIYQFTDKDVAPRSKISPQGY-NH2
modifications: ends and bridges not checked
B15: SEQ ID NO: 69 (peptide)
peptide: KGCRFGTCTVQKLAHQIYQFTDKDKDNVAPRSKISPQGY
modifications: N-terminal miniPEG; palmitoyl on Lys 1 side chain, K(PAL); C-terminal amide
B16: SEQ ID NO: 101 (peptide)
peptide: miniPEG-K(Palmitoyl)GCRFGTCTVQKLAHQIYQFTDKDVAPRSKISPQGY-NH2
modifications: ends and bridges not checked

Biological target: T1, CLR/RAMP2 receptor (UniProt Q16602 23-461; O60895 43-175, limits assumed)
Assay: cell-based or functional assay

T1 sequence (Q16602 23-461 limits assumed, chain 1 of 2): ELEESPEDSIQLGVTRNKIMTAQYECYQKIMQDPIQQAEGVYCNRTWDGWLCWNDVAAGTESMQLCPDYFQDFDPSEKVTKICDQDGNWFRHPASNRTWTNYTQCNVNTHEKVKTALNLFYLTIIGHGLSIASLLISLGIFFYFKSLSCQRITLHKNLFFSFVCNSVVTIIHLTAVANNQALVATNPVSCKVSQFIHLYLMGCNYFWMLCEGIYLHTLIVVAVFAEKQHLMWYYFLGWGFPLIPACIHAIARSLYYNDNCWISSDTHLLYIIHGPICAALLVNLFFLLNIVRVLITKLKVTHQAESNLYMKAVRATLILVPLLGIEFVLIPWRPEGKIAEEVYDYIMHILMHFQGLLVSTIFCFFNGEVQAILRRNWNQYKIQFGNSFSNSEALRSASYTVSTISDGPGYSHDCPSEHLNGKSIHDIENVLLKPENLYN
T1 sequence (O60895 43-175 limits assumed, chain 2 of 2): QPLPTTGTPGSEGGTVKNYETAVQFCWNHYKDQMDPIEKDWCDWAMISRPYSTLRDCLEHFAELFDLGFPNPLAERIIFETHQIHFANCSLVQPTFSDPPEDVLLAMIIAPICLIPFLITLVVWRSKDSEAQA

Binder	IC50 (nM), ADM-stimulated CLR/RAMP2 arrestin assay	Max Activity % of positive control, ADM-stimulated CLR/RAMP2 antagonist assay
B1	4.9 nM	
B2	50 nM	
B3		103 % of positive control
B4	146 nM	
B5	61 nM	
B6	7.3 nM	
B7	117 nM	
B8	0.6 nM	
B9	5.3 nM	
B10	34 nM	107 % of positive control
B11	85 nM	

Biological target: T2, CLR/RAMP1 receptor (UniProt Q16602 23-461; O60894 27-148, limits assumed)
Assay: cell-based or functional assay

T2 sequence (Q16602 23-461 limits assumed, chain 1 of 2): as the sequence (Q16602 23-461 limits assumed, chain 1 of 2) above
T2 sequence (O60894 27-148 limits assumed, chain 2 of 2): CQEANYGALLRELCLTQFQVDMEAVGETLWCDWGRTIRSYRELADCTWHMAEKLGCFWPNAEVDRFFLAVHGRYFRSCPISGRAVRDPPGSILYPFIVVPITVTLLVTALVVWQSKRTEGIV

Binder	IC50 (nM), CGRP-stimulated CLR/RAMP1 cAMP assay	Max Activity % of positive control, CGRP-stimulated CLR/RAMP1 antagonist assay
B1	3.2 nM	
B2	4.7 nM	
B3		95 % of positive control
B4	4.8 nM	
B5	7.3 nM	
B6	152 nM	
B7	1880 nM	
B8	21 nM	
B9	1.8 nM	
B10	4.8 nM	104 % of positive control
B11	5.8 nM	

Biological target: T3, CLR/RAMP3 receptor (UniProt Q16602 23-461; O60896 24-148, limits assumed)
Assay: cell-based or functional assay

T3 sequence (Q16602 23-461 limits assumed, chain 1 of 2): as the sequence (Q16602 23-461 limits assumed, chain 1 of 2) above
T3 sequence (O60896 24-148 limits assumed, chain 2 of 2): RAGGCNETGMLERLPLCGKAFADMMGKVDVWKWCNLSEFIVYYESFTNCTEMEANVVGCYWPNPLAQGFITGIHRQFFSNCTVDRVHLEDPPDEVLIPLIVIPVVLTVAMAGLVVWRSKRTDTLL

Binder	IC50 (nM), CLR/RAMP3 cAMP antagonist assay	Max Activity % of positive control, CLR/RAMP3 antagonist assay
B1	1.8 nM	
B3		102 % of positive control
B4	8.4 nM	
B5	4.1 nM	
B6	53 nM	
B7	115 nM	
B8	1.5 nM	
B9	2.3 nM	
B10	0.8 nM	101 % of positive control
B11	9.2 nM	

Biological target: T1, CLR/RAMP2 receptor
Assay: cell-based or functional assay
Remark: another data set of the same source

Binder	EC50 (nM), CLR/RAMP2 arrestin assay
B12	0.3 nM
B13	0.2 nM
B14	0.7 nM
B15	0.6 nM

Biological target: T2, CLR/RAMP1 receptor
Assay: cell-based or functional assay
Remark: another data set of the same source

Binder	EC50 (nM), CLR/RAMP1 cAMP assay
B12	0.4 nM
B13	0.3 nM
B14	4.5 nM

Biological target: T3, CLR/RAMP3 receptor
Assay: cell-based or functional assay
Remark: another data set of the same source

Binder	EC50 (nM), CLR/RAMP3 cAMP assay
B12	0.2 nM
B13	0.07 nM
B16	0.5 nM
B14	0.3 nM
B15	0.6 nM
